We go through four molecules from publication PMC10397247.

The target of test [1] is T1, 4H340-AA.
T1 chain: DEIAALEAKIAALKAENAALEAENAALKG
In words: two-hybrid library CCmax.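 Note: natural log of median RNA to DNA barcode read ratio; higher means stronger binding.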

Test [2] concerns the target T2, 4H3413-AA.
T2 chain: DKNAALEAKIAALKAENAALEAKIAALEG
As to the kind of experiment: two-hybrid library CCmax.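 Note: natural log of median RNA to DNA barcode read ratio; higher means stronger binding.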 Conditions: mean of both orientations.

Test [3] has as its target T3, 4H3588-AA.
T3 chain: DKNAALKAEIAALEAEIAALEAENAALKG
In words: two-hybrid library CCmax.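 Note: natural log of median RNA to DNA barcode read ratio; higher means stronger binding.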 Conditions: mean of both orientations.

The target in test [4] is T4, 4H3606-AA.
T4 chain: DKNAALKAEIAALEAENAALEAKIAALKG
As to the kind of experiment: two-hybrid library CCmax.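 Note: natural log of median RNA to DNA barcode read ratio; higher means stronger binding.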 Conditions: mean of both orientations.

The target in test [5] is T5, 4H3631-AA.
T5 chain: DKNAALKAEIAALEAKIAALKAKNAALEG
In words: two-hybrid library CCmax.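 Note: natural log of median RNA to DNA barcode read ratio; higher means stronger binding.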 Conditions: mean of both orientations.

Test [6] concerns the target T6, 4H3697-AA.
T6 chain: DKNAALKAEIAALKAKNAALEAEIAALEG
As to the kind of experiment: two-hybrid library CCmax.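 Note: natural log of median RNA to DNA barcode read ratio; higher means stronger binding.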 As to conditions: mean of both orientations.

Test [7] deals with T7, 4H3718-AA.
T7 chain: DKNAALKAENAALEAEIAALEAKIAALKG
In words: two-hybrid library CCmax. Conditions: mean of both orientations.

In test [8] the target is T8, 4H384-AA.
T8 chain: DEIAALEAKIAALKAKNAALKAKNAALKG
As to the kind of experiment: two-hybrid library CCmax. Conditions: mean of both orientations.

In test [9] the target is T9, 4H3865-AA.
T9 chain: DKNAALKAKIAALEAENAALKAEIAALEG
In words: two-hybrid library CCmax. Conditions: mean of both orientations.

Test [10] concerns the target T10, 4H697-AA.
T10 chain: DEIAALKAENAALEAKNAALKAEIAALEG
As to the kind of experiment: two-hybrid library CCmax. Conditions: mean of both orientations.

Test [11] has as its target T11, 4H982-AA.
T11 chain: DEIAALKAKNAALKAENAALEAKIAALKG
In words: two-hybrid library CCmax. Conditions: mean of both orientations.

The target of test [12] is T12, 4H918-bH.
T12 chain: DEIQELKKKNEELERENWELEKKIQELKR
As to the kind of experiment: two-hybrid library CCNG1.

The target in test [13] is T13, 4H932-bA.
T13 chain: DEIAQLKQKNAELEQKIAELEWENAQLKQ
In words: two-hybrid library CCNG1.

Test [14] addresses T14, 4H953-bH.
T14 chain: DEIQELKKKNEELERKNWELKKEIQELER
In words: two-hybrid library CCNG1.

Test [15] addresses T15, 4H967-bH.
T15 chain: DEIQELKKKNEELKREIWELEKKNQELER
As to the kind of experiment: two-hybrid library CCNG1.

Test [16] addresses T16, 4H968-bH.
T16 chain: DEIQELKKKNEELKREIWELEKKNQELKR
In words: two-hybrid library CCNG1.

Test [17] has as its target T17, APC9096-AA.
T17 chain: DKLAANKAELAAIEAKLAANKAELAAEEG
In words: two-hybrid library CCmax.

Test [18] has as its target T18, APC9319-AA.
T18 chain: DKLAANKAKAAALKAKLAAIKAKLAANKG
As to the kind of experiment: two-hybrid library CCmax. As to conditions: mean of both orientations.

The target in test [19] is T19, 4H2837-AA.
T19 chain: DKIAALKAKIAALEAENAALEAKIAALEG
In words: two-hybrid library CCmax.

In test [20] the target is T20, 4H2883-AA.
T20 chain: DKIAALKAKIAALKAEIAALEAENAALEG
As to the kind of experiment: two-hybrid library CCmax.

Test [21] addresses T21, 4H2944-AA.
T21 chain: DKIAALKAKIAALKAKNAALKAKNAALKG
In words: two-hybrid library CCmax. As to conditions: mean of both orientations.

For test [22], the target named is T22, 4H2949-AA.
T22 chain: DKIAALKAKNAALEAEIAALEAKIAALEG
As to the kind of experiment: two-hybrid library CCmax. Conditions: mean of both orientations.

Test [23] concerns the target T23, 4H3112-AA.
T23 chain: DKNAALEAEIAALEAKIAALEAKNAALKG
As to the kind of experiment: two-hybrid library CCmax. As to conditions: mean of both orientations.

For test [24], the target named is T24, 4H317-AA.
T24 chain: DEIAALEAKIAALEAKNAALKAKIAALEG
In words: two-hybrid library CCmax. As to conditions: mean of both orientations.

Test [25] concerns the target T25, 4H3343-AA.
T25 chain: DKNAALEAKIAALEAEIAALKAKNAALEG
As to the kind of experiment: two-hybrid library CCmax. Conditions: mean of both orientations.

Test [26] has as its target T26, 4H335-AA.
T26 chain: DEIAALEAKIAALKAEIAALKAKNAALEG
In words: two-hybrid library CCmax. As to conditions: mean of both orientations.

The target of test [27] is T27, 4H342-AA.
T27 chain: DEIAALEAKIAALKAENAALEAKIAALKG
As to the kind of experiment: two-hybrid library CCmax. Conditions: mean of both orientations.

Test [28] addresses T28, 4H3427-AA.
T28 chain: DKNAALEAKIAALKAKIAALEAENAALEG
As to the kind of experiment: two-hybrid library CCmax. Conditions: mean of both orientations.

For test [29], the target named is T29, 4H3627-AA.
T29 chain: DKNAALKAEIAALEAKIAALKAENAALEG
As to the kind of experiment: two-hybrid library CCmax. Conditions: mean of both orientations.

The target in test [30] is T30, 4H3655-AA.
T30 chain: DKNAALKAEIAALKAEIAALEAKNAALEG
In words: two-hybrid library CCmax. As to conditions: mean of both orientations.

For test [31], the target named is T31, 4H3844-AA.
T31 chain: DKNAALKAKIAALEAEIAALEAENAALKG
As to the kind of experiment: two-hybrid library CCmax. As to conditions: mean of both orientations.

The target of test [32] is T32, 4H3921-AA.
T32 chain: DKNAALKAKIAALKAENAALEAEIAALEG
In words: two-hybrid library CCmax. As to conditions: mean of both orientations.

Test [33] concerns the target T33, 4H429-AA.
T33 chain: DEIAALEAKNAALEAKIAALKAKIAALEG
As to the kind of experiment: two-hybrid library CCmax. Conditions: mean of both orientations.

The target of test [34] is T34, 4H454-AA.
T34 chain: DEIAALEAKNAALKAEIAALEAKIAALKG
In words: two-hybrid library CCmax. As to conditions: mean of both orientations.

Test [35] concerns the target T35, 4H48-AA.
T35 chain: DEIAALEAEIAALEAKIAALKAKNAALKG
As to the kind of experiment: two-hybrid library CCmax. Conditions: mean of both orientations.

The target in test [36] is T36, 4H566-AA.
T36 chain: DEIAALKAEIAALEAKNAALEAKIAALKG
As to the kind of experiment: two-hybrid library CCmax. Conditions: mean of both orientations.

For test [37], the target named is T37, 4H605-AA.
T37 chain: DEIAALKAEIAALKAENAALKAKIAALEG
In words: two-hybrid library CCmax. Conditions: mean of both orientations.

For test [38], the target named is T38, 4H678-AA.
T38 chain: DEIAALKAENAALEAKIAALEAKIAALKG
As to the kind of experiment: two-hybrid library CCmax. As to conditions: mean of both orientations.

Test [39] deals with T39, 4H717-AA.
T39 chain: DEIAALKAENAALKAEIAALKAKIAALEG
As to the kind of experiment: two-hybrid library CCmax. As to conditions: mean of both orientations.

Test [40] concerns the target T40, 4H780-AA.
T40 chain: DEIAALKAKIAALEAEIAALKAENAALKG
As to the kind of experiment: two-hybrid library CCmax. Conditions: mean of both orientations.

Test [41] concerns the target T41, 4H794-AA.
T41 chain: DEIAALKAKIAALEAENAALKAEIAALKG
As to the kind of experiment: two-hybrid library CCmax. As to conditions: mean of both orientations.

In test [42] the target is T42, 4H881-AA.
T42 chain: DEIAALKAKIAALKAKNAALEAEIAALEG
As to the kind of experiment: two-hybrid library CCmax. As to conditions: mean of both orientations.

Test [43] concerns the target T43, 4H906-AA.
T43 chain: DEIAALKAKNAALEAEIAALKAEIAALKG
As to the kind of experiment: two-hybrid library CCmax. As to conditions: mean of both orientations.

The target of test [44] is T44, 4H993-AA.
T44 chain: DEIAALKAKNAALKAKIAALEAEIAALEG
As to the kind of experiment: two-hybrid library CCmax. As to conditions: mean of both orientations.

As for DEIAALEAKIAALKAENAALEAENAALKG [4H340-AA], the interaction score in test [1] is 0.807; in test [2], -1.52; in test [3] it was -0.126; in [4], -0.46; in test [5], -0.0653; in [6], -1.98. Also, the interaction score in [7] is -0.983; in [8], 1.51; in test [9] it was -1.26; in test [10] it was -1.32; in [11], -1.24.

In the case of DEIQELKKKNEELERENWELEKKIQELKR [4H918-bH], the interaction score in [12] is 1.26; in test [13], -1.28; in test [14] it was -0.806; in test [15] it was -0.25; in [16], -0.174.

On to DKLAANKAELAAIEAKLAANKAELAAEEG [APC9096-AA], for which the interaction score was -2.06 in test [17] and -1.81 in [18].

On to DKIAALKAKIAALEAENAALEAKIAALEG [4H2837-AA], for which the interaction score in test [19] is 1.42; in test [20], -0.938; in test [21], 0.691; in test [22], -0.836; in test [23] it was 1.23; in test [24], 1.61. The interaction score is -1.14 in test [25]; -0.534 in test [26]; 2.11 in [27]; -2.38 in [28]; -1.14 in test [4]; -1.3 in test [29]. The interaction score in test [30] is -0.923; in [31], -1.21; in test [32], -1.49; in [33], 0.476; in test [34] it was -0.102; in test [35], 0.24. The interaction score in [36] was 1.66; in test [37], 0.402; in test [38] it was -1.18; in test [39], -0.861; in [40] it was -1.81; in test [41], 0.0291. For the same molecule, the interaction score in test [42] is 1.65; in test [43], -0.599; in [44], 1.44.
